Drawing on publication PMC10312502, this text covers fold inhibition of eIF1A association with the 40S subunit, koff and persistence of the FRET signal for one substance.

The target of this experiment is human 40S ribosomal subunit labelled with Cy3 on the N-terminus of uS19 (human) (UniProt P62841). As to the kind of experiment: FRET or BRET. A general note: Bioluminescence resonance energy transfer reports proximity on the nanometre scale.

For the substance “Bat-Hp-CoV Nsp1, fluorescently labelled (wild type) (natural protein)”, the fold inhibition of eIF1A association with the 40S subunit was greater than 2 fold, the koff (usually the rate constant with which the complex falls apart) was less than 0.01 s⁻¹ and the persistence of the FRET signal was greater than 100 s.
